# Reference: patent US20220177564A1 (Ablynx, published 2022)
# Where a chain is given by its changes, count along the chain named. In names and notes the source's numbering stands. Like-named read-outs stand apart in the source and are kept apart here.
# B1: F010700003 (bispecific antibody)
# chain: EVQLVESGGGLVQPGGSLRLSCAASGFTFNNYAMKWVRQAPGKGLEWVSSITTGGGSTDYADSVKGRFTISRDNRKNTLYLQMNSLKPEDTAVYYCANVPFGYYSEHFSGLSFDYRGQGTLVTVSSGGGGSGGGGSGGGGSGGGGSGGGGSGGGGSGGGGSEVQLVESGGGLVQAGGSLRLSCAASGRTFSSYRMGWFRQAPGKEREFVAALSGDGYSTYTANSVNSRFTISRDNAKNTVYLQMNSLKPEDTAIYYCAAKLQYVSGWSYDYPYWGQGTLVTVSS
# notes: Biparatopic anti-IL-13 construct of two VHHs, expressed in Pichia pastoris as FLAG3-HIS6-tagged protein; also called F0107004B06-35GS-F0107004B02; not shown: FLAG3-HIS6 tag
# B2: F010704076 (VHH)
# VHH: EVQLVESGGGLVQPGGSLRLSCAASGSGFGVNILYWYRQAAGIERELIASITSGGITNYVDSVKGRFTISRDNSENTMYLQMNSLRAEDTGVYYCASRNIFDGTTEWGQGTLVTVSS
# notes: E. coli, IMAC; also called F0107501A02 (A14P, E16G, A74S, K83R)
# B3: F027400160 (VHH)
# VHH: B2 VHH with L11V, V92L
# notes: E. coli, IMAC; also called F0107501A02 (L11V, A14P, E16G, A74S, K83R, V89L)
# B4: F0107501A02 (VHH)
# VHH: B2 VHH with P14A, G16E, S74A, R86K
# notes: Wild-type anti-TSLP ISVD; not shown: c-myc, His6 tag of the purified protein
# B5: F027100019 (VHH)
# VHH: DVQLVESGGGVVQPGGSLRLSCAASGRTFSSYRMGWFRQAPGKEREFVAALSGDGYSTYTANSVKGRFTISRDNSKNTVYLQMNSLRPEDTALYYCAAKLQYVSGWSYDYPYWGQGTLVTVSS
# notes: Expressed in E. coli, purified by IMAC; also called F0107004B02 (E1D, L11V, A14P, N64K, S65G, A74S, K83R, I89L)
# B6: F010700014 (VHH)
# chain: EVQLVESGGGLVQAGGSLRLSCAASGRTFSSYRMGWFRQAPGKEREFVAALSGDGYSTYTANSVNSRFTISRDNAKNTVYLQMNSLKPEDTAIYYCAAKLQYVSGWSYDYPYWGQGTLVTVSSGGGGSGGGGSGGGGSGGGGSGGGGSGGGGSGGGGSEVQLVESGGGLVQAGGSLRLSCAASGRTFSSYRMGWFRQAPGKEREFVAALSGDGYSTYTANSVNSRFTISRDNAKNTVYLQMNSLKPEDTAIYYCAAKLQYVSGWSYDYPYWGQGTLVTVSS
# notes: Bivalent anti-IL-13 construct of two VHHs, Pichia pastoris, FLAG3-HIS6-tagged; also called F0107004B02-35GS-F0107004B02; not shown: FLAG3-HIS6 tag
# B7: F0107004B06 (VHH)
# VHH: EVQLVESGGGLVQPGGSLRLSCAASGFTFNNYAMKWVRQAPGKGLEWVSSITTGGGSTDYADSVKGRFTISRDNRKNTLYLQMNSLKPEDTAVYYCANVPFGYYSEHFSGLSFDYRGQGTLVTVSS
# notes: Wild-type anti-IL-13 ISVD; also called F010704B06; F107004B06; not shown: c-myc, His6 tag of the purified protein
# B8: F027100183 (VHH)
# VHH: B7 VHH with L11V, R75S, K87R, V93L
# notes: E. coli, IMAC; also called F0107004B06 (L11V, R74S, K83R, V89L)
# B9: F010704099 (VHH)
# VHH: EVQLVESGGGLVQPGGSLRLSCAASGFTFADYDYDIGWFRQAPGKEREGVSCISNRDGSTYYADSVKGRFTISRDNSKNTVYLQMNSLRPEDTAVYYCAVEIHCDDYGVENFDFDPWGQGTLVTVSS
# notes: E. coli, IMAC; also called F0107529F10 (A14P, T60A, S71R, A74S, S79Y, K83R)
# B10: F010700031 (VHH)
# chain: EVQLVESGGGLVQPGGSLRLSCAASGFTFNNYAMKWVRQAPGKGLEWVSSITTGGGSTDYADSVKGRFTISRDNRKNTLYLQMNSLKPEDTAVYYCANVPFGYYSEHFSGLSFDYRGQGTLVTVSSGGGGSGGGGSGGGGSGGGGSGGGGSGGGGSGGGGSEVQLVESGGGLVQPGGSLRLSCAASGFTFNNYAMKWVRQAPGKGLEWVSSITTGGGSTDYADSVKGRFTISRDNRKNTLYLQMNSLKPEDTAVYYCANVPFGYYSEHFSGLSFDYRGQGTLVTVSS
# notes: Bivalent anti-IL-13 construct of two VHHs, Pichia pastoris, FLAG3-HIS6-tagged; also called F0107004B06-35GS-F0107004B06; not shown: FLAG3-HIS6 tag
# B11: F010700029 (bispecific antibody)
# chain: EVQLVESGGGLVQAGGSLRLSCAASGRTFSSYRMGWFRQAPGKEREFVAALSGDGYSTYTANSVNSRFTISRDNAKNTVYLQMNSLKPEDTAIYYCAAKLQYVSGWSYDYPYWGQGTLVTVSSGGGGSGGGGSGGGGSGGGGSGGGGSGGGGSGGGGSEVQLVESGGGLVQPGGSLRLSCAASGFTFNNYAMKWVRQAPGKGLEWVSSITTGGGSTDYADSVKGRFTISRDNRKNTLYLQMNSLKPEDTAVYYCANVPFGYYSEHFSGLSFDYRGQGTLVTVSS
# notes: Biparatopic anti-IL-13 construct of two VHHs, Pichia pastoris, FLAG3-HIS6-tagged; also called F0107004B02-35GS-F0107004B06; not shown: FLAG3-HIS6 tag
# How the values were obtained:
# human IL-13 [1] = biological target: T1, human IL-13 (human, UniProt P35225 35-146, limits assumed); test: cell-based or functional assay
# human IL-13 [2] = biological target: T1, human IL-13; test: AlphaScreen; hIL-13:hIL-13Rα1:hIL4Rα ternary complex
# human IL-13 [3] = biological target: T1, human IL-13; test: AlphaScreen; hIL-13 to hIL-13Rα1-hFc
# cyno TSLP [4] = biological target: T2, cyno TSLP (cynomolgus monkey, UniProt A0A7N9CAT7 29-159); test: SPR, cyno TSLP
# T2 construct: also called cynomolgus monkey TSLP
# human TSLP [5] = biological target: T3, human TSLP (human, UniProt Q969D9 29-159); test: AlphaScreen; hTSLP:hTSLPR:hIL7Rα ternary complex
# T3 construct: also called hTSLP; hTSP
# human TSLP [6] = biological target: T3, human TSLP; test: SPR, hTSLP
# human TSLP [7] = biological target: T3, human TSLP; test: AlphaScreen, purified ISVD; hTSLP:hTSLPR:hIL7Rα ternary complex
# cyno TSLP-Fc [8] = biological target: T4, cyno TSLP-Fc (cynomolgus monkey, UniProt A0A7N9CAT7 29-159); test: SPR (ProteOn XPR36), periplasmic extract over immobilised Fc fusion
# T4 construct: also called cyno TSLP-hFc; not shown: human Fc part and any linker not described
# hTSLP-Fc [9] = biological target: T5, hTSLP-Fc (human, UniProt Q969D9 29-159); test: as above
# T5 construct: also called hTSLP-hFc; hTLSP-Fc; not shown: human Fc part and any linker not described
# human TSLP [10] = biological target: T3, human TSLP; test: AlphaScreen, purified ISVD; hTSLP to hTSLPR
# cyno TSLP-Fc [11] = biological target: T4, cyno TSLP-Fc; test: SPR (BIAcore T100), Fc fusion captured by anti-huIgG
# hTSLP-Fc [12] = biological target: T5, hTSLP-Fc; test: as above
# cyno TSLP-Fc [13] = biological target: T4, cyno TSLP-Fc; test: cell-based or functional assay
# hTSLP-Fc [14] = biological target: T5, hTSLP-Fc; test: cell-based or functional assay
# human IL-13 [15] = biological target: T1, human IL-13; test: cell-based or functional assay; remark: listed apart in the source
# human IL-13 [16] = biological target: T1, human IL-13; test: SPR, hIL-13 from Peprotech (cat nr 200-13)
# human IL-13 [17] = biological target: T1, human IL-13; test: cell-based or functional assay; remark: listed apart in the source
# human IL-13 [18] = biological target: T1, human IL-13; test: AlphaScreen, purified ISVD; hIL-13:hIL-13Rα1:hIL4Rα ternary complex
# human IL-13 [19] = biological target: T1, human IL-13; test: SPR, hIL-13
# hIL13-Fc = biological target: T6, hIL13-Fc (human, UniProt P35225 25-146); test: SPR (ProteOn XPR36), periplasmic extract over immobilised Fc fusion
# T6 construct: not shown: Fc part and any linker not described
# cyno IL13-Fc = biological target: T7, cyno IL13-Fc (cynomolgus monkey, UniProt Q0PW92 11-132); test: as above
# T7 construct: not shown: Fc part and any linker not described
# human IL-13 [20] = biological target: T1, human IL-13; test: AlphaScreen, purified ISVD; hIL-13 to hIL-13Rα1-hFc
# human IL-13 [21] = biological target: T1, human IL-13; test: SPR, hIL-13 from Peprotech (cat nr 200-13); remark: listed apart in the source
# human TSLP [22] = biological target: T3, human TSLP; test: SPR, hTSLP; remark: listed apart in the source
# cyno TSLP-Fc [23] = biological target: T4, cyno TSLP-Fc; test: SPR; the KD column is on cyno TSLP-hFc
# cyno TSLP-Fc [24] = biological target: T4, cyno TSLP-Fc; test: SPR, cyno TSLP-hFc
# hTSLP-Fc [25] = biological target: T5, hTSLP-Fc; test: SPR, hTSLP-hFc
# cyno TSLP [26] = biological target: T2, cyno TSLP; test: SPR, cyno TSLP; remark: listed apart in the source
# cyno IL-13 [27] = biological target: T8, cyno IL-13 (cynomolgus monkey, UniProt Q0PW92 21-132); test: cell-based or functional assay
# cyno IL-13 [28] = biological target: T8, cyno IL-13; test: cell-based or functional assay; remark: listed apart in the source
# human IL-13 [29] = biological target: T1, human IL-13; test: cell-based or functional assay; remark: listed apart in the source
binder,measurement,setting,value
B1,"IC50, TF1 proliferation assay, 200 pM hIL13",human IL-13 [1],1.2e-08 M
same,% inhibition,human IL-13 [2],100%
same,IC50,human IL-13 [2],3.4 nM
same,% inhibition,human IL-13 [3],99%
same,IC50,human IL-13 [3],0.13 nM
B2,koff,cyno TSLP [4],0.0016 s⁻¹
same,IC50,human TSLP [5],0.27 nM
same,koff,human TSLP [6],6.2e-05 s⁻¹
B3,koff,cyno TSLP [4],0.0043 s⁻¹
same,koff,human TSLP [6],0.00012 s⁻¹
B4,IC50,human TSLP [7],0.35 nM
same,koff,cyno TSLP-Fc [8],0.00066 s⁻¹
same,koff,hTSLP-Fc [9],3.6e-05 s⁻¹
same,koff,cyno TSLP [4],0.0015 s⁻¹
same,IC50,human TSLP [5],0.28 nM
same,koff,human TSLP [6],5.4e-05 s⁻¹
same,IC50,human TSLP [10],0.3 nM
same,Kd,cyno TSLP-Fc [11],25 nM
same,koff,cyno TSLP-Fc [11],0.0018 s⁻¹
same,kon,cyno TSLP-Fc [11],73000 M⁻¹ s⁻¹
same,Kd,hTSLP-Fc [12],0.51 nM
same,koff,hTSLP-Fc [12],5.7e-05 s⁻¹
same,kon,hTSLP-Fc [12],110000 M⁻¹ s⁻¹
same,"IC50, TSLP-induced BaF3 cell proliferation assay",cyno TSLP-Fc [13],> 1000 nM
same,"IC50, TSLP-induced BaF3 cell proliferation assay",hTSLP-Fc [14],> 1000 nM
B5,IC50 (nM) Eotaxin release assay,human IL-13 [15],47 nM
same,Kd,human IL-13 [16],34 nM
same,koff,human IL-13 [16],0.0012 s⁻¹
same,kon,human IL-13 [16],35000 M⁻¹ s⁻¹
B6,"IC50, TF1 proliferation assay, 200 pM hIL13",human IL-13 [1],9.4e-08 M
same,% inhibition,human IL-13 [2],98%
same,IC50,human IL-13 [2],4.8 nM
same,% inhibition,human IL-13 [3],84%
same,IC50,human IL-13 [3],0.27 nM
B7,"IC50, IL-13-induced TF-1 proliferation assay",human IL-13 [17],10000 nM
same,IC50,human IL-13 [18],6.7 nM
same,Kd,human IL-13 [19],26 nM
same,koff,human IL-13 [19],0.0033 s⁻¹
same,kon,human IL-13 [19],250000 M⁻¹ s⁻¹
same,koff,hIL13-Fc,0.0063 s⁻¹
same,koff,cyno IL13-Fc,0.0089 s⁻¹
same,IC50,human IL-13 [20],61 nM
B8,Kd,human IL-13 [21],27 nM
same,koff,human IL-13 [21],0.0075 s⁻¹
same,kon,human IL-13 [21],280000 M⁻¹ s⁻¹
B9,koff,human TSLP [22],7.7e-05 s⁻¹
same,fold lower affinity against parental ISVD F0107529F10,cyno TSLP-Fc [23],2 fold
same,Kd,cyno TSLP-Fc [24],3.3 nM
same,Kd,hTSLP-Fc [25],0.038 nM
same,koff,cyno TSLP [26],0.0018 s⁻¹
B10,"IC50, TF1 proliferation assay, 200 pM hIL13",human IL-13 [1],1e-07 M
same,% inhibition,human IL-13 [2],99%
same,IC50,human IL-13 [2],0.66 nM
B11,"IC50, TF1 proliferation assay, 200 pM cyno IL13",cyno IL-13 [27],2.5e-10 M
same,"IC50, TF1 proliferation assay, 200 pM hIL13",human IL-13 [1],2e-11 M
same,% inhibition,human IL-13 [2],100%
same,IC50,human IL-13 [2],3 nM
same,% inhibition,human IL-13 [3],99%
same,IC50,human IL-13 [3],0.31 nM
same,"IC50, IL-13 induced A549 eotaxin release assay",cyno IL-13 [28],0.15 nM
same,"IC50, IL-13 induced A549 eotaxin release assay",human IL-13 [29],0.21 nM
